The assay addresses BCL6-POZ domain (residues 7 to 128 of human BCL6, C8Q, C67R, C84N) (UniProt P41182). As to the kind of experiment: fluorescence polarisation. (In general: In fluorescence polarisation assays a small probe gives low polarisation when free and higher when bound to something large.)

By Kd is commonly meant the equilibrium constant for the complex coming apart. A low value points to tighter binding. In turn, “wild-type SMRT peptide, labelled with BODIPY TMR H1426(homophenylalanine)” yielded a dissociation constant (Kd) of 43 µM.

As for “wild-type SMRT peptide, labelled with BODIPY TMR H1426(styrylalanine)”, the equilibrium dissociation constant (Kd) was 41 µM.

The record behind these values is PMC3942486, “The Ansamycin Antibiotic, Rifamycin SV, Inhibits BCL6 Transcriptional Repression and Forms a Complex with the BCL6-BTB/POZ Domain” (PLoS ONE, 2014).
